Target: Gal4 Cyclin T1s with a mutated Y175

other: 2 fold
B1: Hexim1, endogenous in HEK293 cells, O94992 1-359 (natural protein)
chain: MAEPFLSEYQHQPQTSNCTGAAAVQEELNPERPPGAEERVPEEDSRWQSRAFPQLGGRPGPEGEGSLESQPPPLQTQACPESSCLREGEKGQNGDDSSAGGDFPPPAEVEPTPEAELLAQPCHDSEASKLGAPAAGGEEEWGQQQRQLGKKKHRRRPSKKKRHWKPYYKLTWEEKKKFDEKQSLRASRIRAEMFAKGQPVAPYNTTQFLMDDHDQEEPDLKTGLYSKRAAAKSDDTSDDDFMEEGGEEDGGSDGMGGDGSEFLQRDFSETYERYHTESLQNMSKQELIKEYLELEKCLSRMEDENNRLRLESKRLGGDDARVRELELELDRLRAENLQLLTENELHRQQERAPLSKFGD
